These results are taken from paper PMC4408062.

In the assay the target is Recombinant human PCSK9 (proprotein convertase subtilisin/kexin type 9) (human) (UniProt Q8NBP7).
Chain of UniProt Q8NBP7 (Q8NBP7 31-692): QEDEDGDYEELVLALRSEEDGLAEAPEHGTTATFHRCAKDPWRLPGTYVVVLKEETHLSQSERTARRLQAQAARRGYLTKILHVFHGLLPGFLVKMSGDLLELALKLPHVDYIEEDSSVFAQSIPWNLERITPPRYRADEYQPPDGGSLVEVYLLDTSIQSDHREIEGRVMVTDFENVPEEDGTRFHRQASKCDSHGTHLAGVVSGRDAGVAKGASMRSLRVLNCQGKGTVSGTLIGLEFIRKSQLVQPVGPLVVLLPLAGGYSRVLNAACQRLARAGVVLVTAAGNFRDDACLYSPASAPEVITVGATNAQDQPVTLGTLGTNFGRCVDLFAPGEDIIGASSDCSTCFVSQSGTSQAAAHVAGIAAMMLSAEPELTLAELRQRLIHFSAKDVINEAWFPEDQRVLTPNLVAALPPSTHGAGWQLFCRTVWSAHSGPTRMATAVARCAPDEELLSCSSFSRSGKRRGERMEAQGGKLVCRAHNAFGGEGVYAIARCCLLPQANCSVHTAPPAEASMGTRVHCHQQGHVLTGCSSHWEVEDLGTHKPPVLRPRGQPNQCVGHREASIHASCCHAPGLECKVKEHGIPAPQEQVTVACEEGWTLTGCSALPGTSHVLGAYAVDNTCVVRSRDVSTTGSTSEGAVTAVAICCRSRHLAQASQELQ

As to LDL (low density lipoprotein particle), the internalisation of PCSK9-488/J16 complexes in APLP2 siRNA treated HepG2 cells with 2.5 μg/ml LDL stood at 2.5 fold.
